Where two headings read alike, the source gives them in different places.
Legend:
[1] = design: species or system Sprague Dawley rats; conditions: rat, in vivo, sc, 1 mg/kg
Protocol: Infliximab, sold as a lyophilized powder with the appropriate salts (Hannah Pharmaceuticals), was resuspended to a concentration of 10 mg/mL with water. The Vitamin D3-PEG-NHS carrier was resuspended at a concentration of 10 mg/mL in DMSO. The Vitamin D3-PEG-NHS carrier and the infliximab were then mixed at a molar ratio of 5:1 and 10:1 carrier to infliximab. […] By using an NHS version of the carrier, more than one carrier can be attached to a therapeutic protein and this can be experimentally controlled by altering the molar ratio of carrier to target therapeutic in the reaction. In this example, a target distribution of 2-4 carriers was set as a desired parameter.
The dose was 1 mg/kg in all test groups with three rats per group. Serum samples were collected pre-dosing and at various times from 5 min to 48 hrs post injection. Serum samples were then analyzed by ELISA using an ELISA kit specific for determining the levels of infliximab in serum (Promonitor™, Progenika™). Pharmacokinetic parameters were determined using WinNonLin.

[2] = 1 mg/kg, cited from earlier work
[3] = FGF21 in its natural state; cited from earlier work

Row | Molecule | serum concentration at 24 hr [1] [ng/mL] | serum concentration at 48 hr [1] [ng/mL] | Cmax ([2]; intravenous route) [nM] | Cmax ([2]; subcutaneous route) [nM] | half-life in serum [3] [h]
1 | infliximab: Monoclonal antibody that binds tumor necrosis factor alpha (TNF-α) [reference compound] | 2100 | 4800 |  |  | 
2 | FGF21: Fibroblast growth factor 21 in its natural state (SEQ ID:2), literature values (protein, listed as Homo sapiens) HPIPDSSPLLQFGGQVRQRYLYTDDAQQTEAHLEIREDGTVGGAADQSPESLLQLKALKPGVIQILGVKTSRFLCQRPDGALYGSLHFDPEACSFRELLLEDGYNVYQSEAHGLPLHLPGNKSPHRDPAPRGPARFLPLPGLPPALPEPPGILAPQPPDVGSSDPLSMVGPSQGRSPSYAS |  |  | 1890 | 73 | 1.1

From patent publication US9289507B2, “Carriers for improved drug delivery” (Extend Biosciences, Inc., priority 2012, dated 2016)
